In this experiment the target is MG10 (Gln213 to Ala231 of the human Mpl amino acid sequence) and GST fusion protein (human) (UniProt P40238). Description: SPR, Biacore 3000, MG10-GST amine-coupled on CM5, sc(Fv)2 at about 5-150 nM as analyte, bivalent analyte model. For orientation: Surface plasmon resonance follows binding to a sensor surface in real time, without labels.

B1: humanized anti-human Mpl antibody hVB22B u2-wz4 sc(Fv)2 (bulk, before separation of the structural isomers) (scFv, from another filing)
chain: QVQLVQSGPEVKKPGASVKVSCKASGYTFTNSWMNWVRQRPGKGLEWIGRIYPGDGETIYNGKFRVRVTITADESTSTAYMQLSSLRSEDTAVYYCARGYDDYSFAYWGQGTTVTVSSGGGGSGGGGSGGGGSDIVMTQSPLSLPVTPGEPASISCRSSKSLLHSNGNTYLYWFLQKPGQSPQLLIYRMSNLASGVPDRFSGSGSGTDFTLKISRVEAEDVGVYYCMQHIEYPFTFGQGTKLEIKGGGGSGGGGSGGGGSQVQLVQSGPEVKKPGASVKVSCKASGYTFTNSWMNWVRQRPGKGLEWIGRIYPGDGETIYNGKFRVRVTITADESTSTAYMQLSSLRSEDTAVYYCARGYDDYSFAYWGQGTTVTVSSGGGGSGGGGSGGGGSDIVMTQSPLSLPVTPGEPASISCRSSKSLLHSNGNTYLYWFLQKPGQSPQLLIYRMSNLASGVPDRFSGSGSGTDFTLKISRVEAEDVGVYYCMQHIEYPFTFGQGTKLEIK
Take B1: the Kd was 10.2 nM.

B2: hVB22B u2-wz4 sc(Fv)2 peak2 (single chain diabody type structural isomer) (scFv, from another filing)
chain: QVQLVQSGPEVKKPGASVKVSCKASGYTFTNSWMNWVRQRPGKGLEWIGRIYPGDGETIYNGKFRVRVTITADESTSTAYMQLSSLRSEDTAVYYCARGYDDYSFAYWGQGTTVTVSSGGGGSGGGGSGGGGSDIVMTQSPLSLPVTPGEPASISCRSSKSLLHSNGNTYLYWFLQKPGQSPQLLIYRMSNLASGVPDRFSGSGSGTDFTLKISRVEAEDVGVYYCMQHIEYPFTFGQGTKLEIKGGGGSGGGGSGGGGSQVQLVQSGPEVKKPGASVKVSCKASGYTFTNSWMNWVRQRPGKGLEWIGRIYPGDGETIYNGKFRVRVTITADESTSTAYMQLSSLRSEDTAVYYCARGYDDYSFAYWGQGTTVTVSSGGGGSGGGGSGGGGSDIVMTQSPLSLPVTPGEPASISCRSSKSLLHSNGNTYLYWFLQKPGQSPQLLIYRMSNLASGVPDRFSGSGSGTDFTLKISRVEAEDVGVYYCMQHIEYPFTFGQGTKLEIK
Turning to B2, the Kd was determined as 9.92 nM.

B3: hVB22B u2-wz4 sc(Fv)2 peak1 (bivalent scFv type structural isomer) (scFv, from another filing)
chain: QVQLVQSGPEVKKPGASVKVSCKASGYTFTNSWMNWVRQRPGKGLEWIGRIYPGDGETIYNGKFRVRVTITADESTSTAYMQLSSLRSEDTAVYYCARGYDDYSFAYWGQGTTVTVSSGGGGSGGGGSGGGGSDIVMTQSPLSLPVTPGEPASISCRSSKSLLHSNGNTYLYWFLQKPGQSPQLLIYRMSNLASGVPDRFSGSGSGTDFTLKISRVEAEDVGVYYCMQHIEYPFTFGQGTKLEIKGGGGSGGGGSGGGGSQVQLVQSGPEVKKPGASVKVSCKASGYTFTNSWMNWVRQRPGKGLEWIGRIYPGDGETIYNGKFRVRVTITADESTSTAYMQLSSLRSEDTAVYYCARGYDDYSFAYWGQGTTVTVSSGGGGSGGGGSGGGGSDIVMTQSPLSLPVTPGEPASISCRSSKSLLHSNGNTYLYWFLQKPGQSPQLLIYRMSNLASGVPDRFSGSGSGTDFTLKISRVEAEDVGVYYCMQHIEYPFTFGQGTKLEIK
B3 returned a Kd of 12.4 nM.

Source of the values: patent publication WO2006132352A1.
